Substitutions are numbered along the chain they refer to. Blank lines part the entries; values can stand above or below the binder they belong to.
What was measured:
[1] = molecular target: T1, human APRIL in serum of CLL patients (human, UniProt O75888 105-250); test: ELISA: serum APRIL of CLL1, CLL3 and CLL6 captured by BCMA-Fc (500 or 100 ng/well)
T1 construct: Endogenous soluble APRIL in patient sera (CLL1, CLL3, CLL6, CLL11-20); also called hAPRIL; A Proliferation-Inducing Ligand
T1 sequence (looked up): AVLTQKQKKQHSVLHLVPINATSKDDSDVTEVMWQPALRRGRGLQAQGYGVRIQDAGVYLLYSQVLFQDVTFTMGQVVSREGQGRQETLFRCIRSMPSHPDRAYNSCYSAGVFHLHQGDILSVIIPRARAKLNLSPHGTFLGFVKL
Method: To quantify the APRIL serum levels in serum derived from CLL patients using the newly identified APRIL monoclonal antibodies, hAPRIL.130, hAPRIL.132, hAPRIL.133, hAPRIL.135 and hAPRIL.138 the following ELISA assay was performed. […] Next, plates were washed three times with PBS/0.2% Tween and blocked with 150 μl PBS/1% BSA for one hour at 37° C. After washing 3 times with PBS/0.2% Tween 100 μl of samples or standard curves was added. The CLL serum samples were five times diluted in PBS/10% FCS, while standard curve was diluted in PBS+FCS 10%+HS 20%. Samples and standard curve concentrations were incubated for 2 hr at room temperature. Next, plates were washed three times with PBS/0.2% Tween. Next, 100 μl of the anti-APRIL monoclonal antibody was added to the plates at a concentration of 1 μg/ml diluted in PBS/1% BSA and incubated for one hour at 37° C. Subsequently, plates were washed three times with PBS/0.2% Tween and 100 μl of Goat anti-Mouse IgG (H&L) (Southern Biotech, cat number 1031-05), diluted 1:1,000 in PBS/1% BSA was added and incubated for one hour at 37° C. Plates were washed three times with PBS/0.2% Tween and bound immune complexes visualized by addition of 100 μl of TMB substrate (TMB). The reaction was stopped by adding an equal amount of 1 M hydrochloric acid to the reaction volume. Bound APRIL was quantified by measurement of optical density at 450 nm.

[2] = molecular target: T1, human APRIL in serum of CLL patients; test: ELISA: serum APRIL captured by BCMA-Fc, antibody at 1 µg/ml, goat anti-mouse IgG detection
Method: To quantify the APRIL serum levels in serum derived from CLL patients using the newly identified APRIL monoclonal antibodies, hAPRIL.130, hAPRIL.132, hAPRIL.133, hAPRIL.135 and hAPRIL.138 the following ELISA assay was performed. ELISA plates were coated with 100 μl of 0.5 μg/ml BCMA-Fc (EBC0512081; R&D), in coating buffer (0.2 M Sodium Phosphate, pH=6.5) and incubated overnight at 4° C. Next, plates were washed three times with PBS/0.2% Tween and blocked with 150 μl PBS/1% BSA for one hour at 37° C. After washing 3 times with PBS/0.2% Tween 100 μl of samples or standard curves was added. The CLL serum samples were five times diluted in PBS/10% FCS, while standard curve was diluted in PBS+FCS 10%+HS 20%. Samples and standard curve concentrations were incubated for 2 hr at room temperature. Next, plates were washed three times with PBS/0.2% Tween. Next, 100 μl of the anti-APRIL monoclonal antibody was added to the plates at a concentration of 1 μg/ml diluted in PBS/1% BSA and incubated for one hour at 37° C. Subsequently, plates were washed three times with PBS/0.2% Tween and 100 μl of Goat anti-Mouse IgG (H&L) (Southern Biotech, cat number 1031-05), diluted 1:1,000 in PBS/1% BSA was added and incubated for one hour at 37° C. […] Bound APRIL was quantified by measurement of optical density at 450 nm.

B1: hAPRIL.135 (antibody, IgG1, V domains shown)
VH: QVQLKESGPGLVAPSQSLSITCTVSGFSLSRYSVHWVRQPPGKGLEWLGMIWGGGSTDYNSALKSRLSISKDNSKRQVFLKMNSLQTDDTAIYYCARSNWEIYALDYWGQGTSVTVSS
VL: DIVLTQSPASLAVSLGQRATISCKASQSIDYDGDNYMNWYQQKPGQPPKLLIYVASSLESGIPARFSGSGSGTDFTLNIHPVEEEDAATYYCQQSNVEPYTFGGGTKLEIK
notes: constant regions are not; also called anti-hAPRIL antibody hAPRIL.135
- binding result [1]: binds

B2: hAPRIL.138 (antibody, IgG1, V domains shown)
VH: B1 VH with V34I, G42R, S70N, N83H, L105M
VL: B1 VL with A9P, N35R, S57N, N96H, V97E, Y100H
notes: constant regions are not; also called anti-hAPRIL antibody hAPRIL.138
- binding result [2]: binds

The remaining lines, values ahead:

- binding result [1]: binds
B3: hAPRIL.133 (antibody, IgG1, V domains shown)
VH: QVQLKESGPGLVAPSQSLSITCTVSGFSLTGYGVNWVRQPPGKGLEWLGVIWGDGSTEYNSALKSRLSISKDKSKSQVFLKMNSLQTDDTARYYCARDDDVMDYWGQGTSVTVSS
VL: SIVMTQTPKFLLVSAGDSITITCKADQSVSSDVAWYQQKAGQSPKLLIYYASNRYTGVPDRFTGSGYGTDFTFAISSVQAEDLAVYFCQQDYSSPWTFGGGTKLEIK
notes: constant regions are not; also called hAPRIL.133 mAb; anti-hAPRIL.133 monoclonal antibody

- binding result [1]: binds
B4: hAPRIL.132 (antibody, IgG1, V domains shown)
VH: QEQLKESGPGLVAPSQSLSITCTVSGFSLTSYGVHWVRQPPGKGLEWLGVIWAGGSTNYNSALMSRLSISRDNSKSQVFLKMNSLQTDDTAMYYCAREGLDTSGFYYAMDYWGQGTSVTVSS
VL: DIQMTQTTSSLSASLGDRVTISCRAGQAISNYLNWYQQKPGGTVKLLIYYTSKLHSGVPSRFSGSGSGTDYSLTISNLEQEDIATYFCQQGYTLPYTFGGGTKLEIK
notes: constant regions are not; also called anti-hAPRIL antibody hAPRIL.132
